Test results published in publication PMC6925194.

Assay: CHO co-transfection, flow cytometry fusion index
Details: glycan lost; control: wild-type ASCT2

Protein | other: SYN1-induced cell-cell fusion
ASCT2 (Alanine, Serine, Cysteine Transporter 2; SLC1A5): N163H (protein) parent chain: MVADPPRDSKGLAAAEPTANGGLALASIEDQGAAAGGYCGSRDQVRRCLRANLLVLLTVVAVVAGVALGLGVSGAGGALALGPERLSAFVFPGELLLRLLRMIILPLVVCSLIGGAASLDPGALGRLGAWALLFFLVTTLLASALGVGLALALQPGAASAAINASVGAAGSAENAPSKEVLDSFLDLARNIFPSNLVSAAFRSYSTTYEERNITGTRVKVPVGQEVEGMNILGLVVFAIVFGVALRKLGPEGELLIRFFNSFNEATMVLVSWIMWYAPVGIMFLVAGKIVEMEDVGLLFARLGKYILCCLLGHAIHGLLVLPLIYFLFTRKNPYRFLWGIVTPLATAFGTSSSSATLPLMMKCVEENNGVAKHISRFILPIGATVNMDGAALFQCVAAVFIAQLSQQSLDFVKIITILVTATASSVGAAGIPAGGVLTLAIILEAVNLPVDHISLILAVDWLVDRSCTVLNVEGDALGAGLLQNYVDRTESRSTEPELIQVKSELPLDPLPVPTEEGNPLLKHYRGPAGDATVASEKESVM | no change
ASCT2 (Alanine, Serine, Cysteine Transporter 2; SLC1A5): N163H/N212H (protein) parent chain: MVADPPRDSKGLAAAEPTANGGLALASIEDQGAAAGGYCGSRDQVRRCLRANLLVLLTVVAVVAGVALGLGVSGAGGALALGPERLSAFVFPGELLLRLLRMIILPLVVCSLIGGAASLDPGALGRLGAWALLFFLVTTLLASALGVGLALALQPGAASAAINASVGAAGSAENAPSKEVLDSFLDLARNIFPSNLVSAAFRSYSTTYEERNITGTRVKVPVGQEVEGMNILGLVVFAIVFGVALRKLGPEGELLIRFFNSFNEATMVLVSWIMWYAPVGIMFLVAGKIVEMEDVGLLFARLGKYILCCLLGHAIHGLLVLPLIYFLFTRKNPYRFLWGIVTPLATAFGTSSSSATLPLMMKCVEENNGVAKHISRFILPIGATVNMDGAALFQCVAAVFIAQLSQQSLDFVKIITILVTATASSVGAAGIPAGGVLTLAIILEAVNLPVDHISLILAVDWLVDRSCTVLNVEGDALGAGLLQNYVDRTESRSTEPELIQVKSELPLDPLPVPTEEGNPLLKHYRGPAGDATVASEKESVM | no change
ASCT2 (Alanine, Serine, Cysteine Transporter 2; SLC1A5): N212H (protein) parent chain: MVADPPRDSKGLAAAEPTANGGLALASIEDQGAAAGGYCGSRDQVRRCLRANLLVLLTVVAVVAGVALGLGVSGAGGALALGPERLSAFVFPGELLLRLLRMIILPLVVCSLIGGAASLDPGALGRLGAWALLFFLVTTLLASALGVGLALALQPGAASAAINASVGAAGSAENAPSKEVLDSFLDLARNIFPSNLVSAAFRSYSTTYEERNITGTRVKVPVGQEVEGMNILGLVVFAIVFGVALRKLGPEGELLIRFFNSFNEATMVLVSWIMWYAPVGIMFLVAGKIVEMEDVGLLFARLGKYILCCLLGHAIHGLLVLPLIYFLFTRKNPYRFLWGIVTPLATAFGTSSSSATLPLMMKCVEENNGVAKHISRFILPIGATVNMDGAALFQCVAAVFIAQLSQQSLDFVKIITILVTATASSVGAAGIPAGGVLTLAIILEAVNLPVDHISLILAVDWLVDRSCTVLNVEGDALGAGLLQNYVDRTESRSTEPELIQVKSELPLDPLPVPTEEGNPLLKHYRGPAGDATVASEKESVM | no change
